Tests used:
Assay in all cases: flow cytometry, HEK293-T, alanine scan
[1] = biological target: human CD33 Q311A (human) (UniProt P20138)
[2] = biological target: human CD33 G295A (human) (UniProt P20138)
[3] = biological target: human CD33 S305A (human) (UniProt P20138)
[4] = biological target: human CD33 K315A (human) (UniProt P20138)
[5] = biological target: human CD33 I281A (human) (UniProt P20138)
[6] = biological target: human CD33 N344A (human) (UniProt P20138)
[7] = biological target: human CD33 R291A (human) (UniProt P20138)
[8] = biological target: human CD33 T322A (human) (UniProt P20138)
human CD33 T322A (human), sequence (P20138 18-364 T322A limits assumed): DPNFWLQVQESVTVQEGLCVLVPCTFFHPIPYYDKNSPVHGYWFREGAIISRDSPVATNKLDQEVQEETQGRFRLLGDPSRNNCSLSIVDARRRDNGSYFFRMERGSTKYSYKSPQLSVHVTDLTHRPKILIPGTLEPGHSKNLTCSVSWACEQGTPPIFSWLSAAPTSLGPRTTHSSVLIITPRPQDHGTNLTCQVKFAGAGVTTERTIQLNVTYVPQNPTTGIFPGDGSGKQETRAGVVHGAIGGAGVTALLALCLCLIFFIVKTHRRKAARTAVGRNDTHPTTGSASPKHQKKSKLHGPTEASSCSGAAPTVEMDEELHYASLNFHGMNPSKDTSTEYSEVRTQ

[9] = biological target: human CD33 G327A (human) (UniProt P20138)
[10] = biological target: human CD33 S324A (human) (UniProt P20138)
[11] = biological target: human CD33 T284A (human) (UniProt P20138)
[12] = biological target: human CD33 I278A (human) (UniProt P20138)
[13] = biological target: human CD33 K313A (human) (UniProt P20138)
[14] = biological target: human CD33 L273A (human) (UniProt P20138)
[15] = biological target: human CD33 M334A (human) (UniProt P20138)
human CD33 M334A (human), sequence (P20138 18-364 M334A limits assumed): as the sequence (P20138 18-364 T322A limits assumed) above, with A305T, M317A counted along it

[16] = biological target: human CD33 V294A (human) (UniProt P20138)
human CD33 V294A (human), sequence (P20138 18-364 V294A limits assumed): as the sequence (P20138 18-364 T322A limits assumed) above, with V277A, A305T counted along it

[17] = biological target: human CD33 T292A (human) (UniProt P20138)
[18] = biological target: human CD33 G304A (human) (UniProt P20138)
human CD33 G304A (human), sequence (P20138 18-364 G304A limits assumed): as the sequence (P20138 18-364 T322A limits assumed) above, with G287A, A305T counted along it

[19] = biological target: human CD33 D335A (human) (UniProt P20138)
[20] = biological target: human CD33 E333A (human) (UniProt P20138)
[21] = biological target: human CD33 E336A (human) (UniProt P20138)
human CD33 E336A (human), sequence (P20138 18-364 E336A limits assumed): as the sequence (P20138 18-364 T322A limits assumed) above, with A305T, E319A counted along it

[22] = biological target: human CD33 A290S (human) (UniProt P20138)
[23] = biological target: human CD33 N297A (human) (UniProt P20138)
human CD33 N297A (human), sequence (P20138 18-364 N297A limits assumed): as the sequence (P20138 18-364 T322A limits assumed) above, with N280A, A305T counted along it

[24] = biological target: human CD33 S307A (human) (UniProt P20138)
[25] = biological target: human CD33 C325A (human) (UniProt P20138)
human CD33 C325A (human), sequence (P20138 18-364 C325A limits assumed): as the sequence (P20138 18-364 T322A limits assumed) above, with A305T, C308A counted along it

[26] = biological target: human CD33 P301A (human) (UniProt P20138)
[27] = biological target: human CD33 Y340A (human) (UniProt P20138)
human CD33 Y340A (human), sequence (P20138 18-364 Y340A limits assumed): as the sequence (P20138 18-364 T322A limits assumed) above, with A305T, Y323A counted along it

[28] = biological target: human CD33 R287A (human) (UniProt P20138)
[29] = biological target: human CD33 P319A (human) (UniProt P20138)
[30] = biological target: human CD33 L277A (human) (UniProt P20138)
[31] = biological target: human CD33 E321A (human) (UniProt P20138)
[32] = biological target: human CD33 A289S (human) (UniProt P20138)
[33] = biological target: human CD33 L338A (human) (UniProt P20138)
human CD33 L338A (human), sequence (P20138 18-364 L338A limits assumed): as the sequence (P20138 18-364 T322A limits assumed) above, with A305T, L321A counted along it

[34] = biological target: human CD33 A328S (human) (UniProt P20138)
[35] = biological target: human CD33 A306S (human) (UniProt P20138)
[36] = biological target: human CD33 D298A (human) (UniProt P20138)
human CD33 D298A (human), sequence (P20138 18-364 D298A limits assumed): as the sequence (P20138 18-364 T322A limits assumed) above, with D281A, A305T counted along it

[37] = biological target: human CD33 G318A (human) (UniProt P20138)
human CD33 G318A (human), sequence (P20138 18-364 G318A limits assumed): as the sequence (P20138 18-364 T322A limits assumed) above, with G301A, A305T counted along it

[38] = biological target: human CD33 T299A (human) (UniProt P20138)
[39] = biological target: human CD33 H339A (human) (UniProt P20138)
[40] = biological target: human CD33 A329S (human) (UniProt P20138)
[41] = biological target: human CD33 R296A (human) (UniProt P20138)
human CD33 R296A (human), sequence (P20138 18-364 R296A limits assumed): as the sequence (P20138 18-364 T322A limits assumed) above, with R279A, A305T counted along it

[42] = biological target: human CD33 A341S (human) (UniProt P20138)
[43] = biological target: human CD33 H300A (human) (UniProt P20138)
[44] = biological target: human CD33 K283A (human) (UniProt P20138)
[45] = biological target: human CD33 L316A (human) (UniProt P20138)
[46] = biological target: human CD33 H285A (human) (UniProt P20138)

human CD33 N344A (human), sequence (P20138 18-364 N344A limits assumed): as the sequence (P20138 18-364 T322A limits assumed) above, with A305T, N327A counted along it
human CD33 K315A (human), sequence (P20138 18-364 K315A limits assumed): as the sequence (P20138 18-364 T322A limits assumed) above, with K298A, A305T counted along it

Refmab #7 (WM53) (antibody)
Mean % WT Binding [1]: 93.6 % WT binding | Mean % WT Binding [2]: 115 % WT binding | Mean % WT Binding [3]: 106 % WT binding | Mean % WT Binding [4]: 112 % WT binding | Mean % WT Binding [5]: 110 % WT binding | Mean % WT Binding [6]: 108 % WT binding | Mean % WT Binding [7]: 120 % WT binding | Mean % WT Binding [8]: 102 % WT binding | Mean % WT Binding [9]: 110 % WT binding | Mean % WT Binding [10]: 99.2 % WT binding | Mean % WT Binding [11]: 120 % WT binding | Mean % WT Binding [12]: 93.2 % WT binding | Mean % WT Binding [13]: 108 % WT binding | Mean % WT Binding [14]: 92.5 % WT binding | Mean % WT Binding [15]: 93.9 % WT binding | Mean % WT Binding [16]: 126 % WT binding | Mean % WT Binding [17]: 119 % WT binding | Mean % WT Binding [18]: 103 % WT binding | Mean % WT Binding [19]: 106 % WT binding | Mean % WT Binding [20]: 91 % WT binding | Mean % WT Binding [21]: 98.4 % WT binding | Mean % WT Binding [22]: 98 % WT binding | Mean % WT Binding [23]: 81.2 % WT binding | Mean % WT Binding [24]: 91.7 % WT binding | Mean % WT Binding [25]: 101 % WT binding | Mean % WT Binding [26]: 99.8 % WT binding | Mean % WT Binding [27]: 112 % WT binding | Mean % WT Binding [28]: 91.1 % WT binding | Mean % WT Binding [29]: 114 % WT binding | Mean % WT Binding [30]: 92 % WT binding | Mean % WT Binding [31]: 109 % WT binding | Mean % WT Binding [32]: 107 % WT binding | Mean % WT Binding [33]: 124 % WT binding | Mean % WT Binding [34]: 119 % WT binding | Mean % WT Binding [35]: 100 % WT binding | Mean % WT Binding [36]: 86.5 % WT binding | Mean % WT Binding [37]: 128 % WT binding | Mean % WT Binding [38]: 109 % WT binding | Mean % WT Binding [39]: 133 % WT binding | Mean % WT Binding [40]: 120 % WT binding | Mean % WT Binding [41]: 93.6 % WT binding | Mean % WT Binding [42]: 95 % WT binding | Mean % WT Binding [43]: 106 % WT binding | Mean % WT Binding [44]: 117 % WT binding | Mean % WT Binding [45]: 103 % WT binding | Mean % WT Binding [46]: 109 % WT binding

Reference: US20260242735A1
